In the RNAGym collection of RNA variant scans (doi:10.1073/pnas.2313332121):

B1: TPR t1 (parent)
chain: GACCAAUCUGCCCUCAGAGCUCGAGAACAUCUUCGGAUGCAGAGGAGGCAGGCUUCGGUGGCGCGAUAGCGCCAACGUCCUCAACCUCCAAUGCAUCCCACCACAUGAUGAUGCCUGAAGAGCCUUGGUUUUUUG

Variants of: B1
Assay: polymerase ribozyme fitness, log enrichment relative to wild type (log ratio); higher = more active; in vitro selection for triplet polymerase activity
Method in brief: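 Only genotypes with ≥10 input reads and ≥1 read per output were kept after Illumina sequencing of input and output libraries. These libraries were PCR-built, transcribed mutants of each subunit of a heterodimeric triplet polymerase ribozyme, each put through one triplicate in vitro selection round with frozen incubation at −7 °C, gel excision of extended constructs, streptavidin-bead capture and RT-PCR. Fitness is a logarithmic ratio of genotype enrichment to wild-type enrichment, from inverse-variance-weighted replicate averages, with the logarithm in base 2.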

Row | Variant | polymerase ribozyme fitness (log ratio)
1 | G19C C22G C72U | -4.44
2 | G19A U78G C80U | -3.52
3 | A18U U125G | -3.41
4 | G19C C22U A46C G61U C114U | -4.53
5 | G19A G35C C53G C114G | -6.59
6 | G19C G63U C80A G110C | -6.93
7 | G19A U87G U109G | -4.8
8 | A18U G71A G120A | -3.53
9 | G19C G44C C70A G93C C124G | -5.3
10 | G19A G48U C49U G69U U78C G93U | -3.08
11 | A18U U67G C101G U116C | -5.12
12 | G19C U81C C124G | -0.981
13 | G19C C62U U112G | -6.55
14 | G19A G48U G63A U96G C101A G113U | -5.6
15 | G19A A74C | -3.23
16 | G19A G120A | -2.6
17 | G19A G52A G113A G127A | -2.38
18 | G19C C89A U125G | -2.33
19 | A18U U112C G128A | -2.38
20 | A18U G42A U130A | -3.41
21 | A18U G61A | -1.19
22 | A18U G61C | -5.22
23 | G19A G44U | -3.1
24 | G19A A37C G61U G120C | -2.13

Row | Variant | polymerase ribozyme fitness (log ratio)
25 | A18U U78A A95U C104U | -4.27
26 | G19C C20A G71A A95U C102U U116C C123U U126G | -6.03
27 | G19C G120A | -1.56
28 | A18U U21A A24G U55G | -3.96
29 | G19A A41U U81A C82A U112A | -0.674
30 | G19U A37C | -3.64
31 | G19A C20A A66G G69U U96A | -4.02
32 | G19A C88U | -2.19
33 | G19A C40U U112A | -0.444
34 | G19C G45A C72A G120C | -1.67
35 | A18U G45A C73U | -2.84
36 | G19A C86G C101U | -4.15
37 | A18U G77U | -2.27
38 | G19A G47A | -4.12
39 | G19C G42C G110U G113A | -5.33
40 | A18U U21G C79G G93C G107C A108U C123G C124U | -7.63
41 | A18U U54A C72G | -2.46
42 | G19A C89A | -2.63
43 | G19A G60A C101A U106A A119U C123U | -5
44 | G19A G61A | -2.53
45 | G19C A66C C114U U116C | -3.53
46 | G19C C79A C89A | -4.61
47 | A18U G44A A46U G48C G61U C72U C98U | -5.97
48 | G19U A43G G47U C76G G113A A119C U131A | -4.34

Row | Variant | polymerase ribozyme fitness (log ratio)
49 | A18U G44A C94A C114A | -3.45
50 | A18U G63C C64U C97G G117A | -6.33
51 | A18U U112G | -2.46
52 | A18U U112A | -1.42
53 | G19A G42U G45C A50U | -4.81
54 | G19A A41U C56G U59A | -5.05
55 | G19A U116G | -6.24
56 | A18U G110U | -3.52
57 | G19A G69C G110C | -6.61
58 | G19A C76A C89G | -4.06
59 | A18U G120U | -1.46
60 | G19A G58C C94G G120C | -3.72
61 | G19A G60A A90C | -2.74
62 | G19A G42A | -3.26
63 | G19A A91G G117A | -5.25
64 | G19C G42U G45C C79A C82G | -4.37
65 | G19A G60A U87A C114G | -3.18
66 | A18U G57C G77U A105U U112C | -4.24
67 | G19A U87A | -2.78
68 | A18U U78C C88U U112G | -2.16
69 | A18U G52C G61C U87C G120C | -4.57
70 | G19C U78C A90G G113U C114U | -0.588
71 | A18U G48C G71U C82A | -5.32
72 | A18U G47U C101A U109A G113A U116A | -6.66

Row | Variant | polymerase ribozyme fitness (log ratio)
73 | A18U G113U | -4.9
74 | A18U G47U | -3.96
75 | G19A G44C U96A G120C | -3.85
76 | A18U G42A C53G G71C C85U C89A | -4.28
77 | G19C C62G C115U | -4.26
78 | G19U A37C C56U A84C | -3.87
79 | G19C C86A | -2.92
80 | G19A C62U U78C G127C | -4.4
81 | G19C G42A G120U | -2.23
82 | G19A C70G G113U | -5.75
83 | A18U G71A G93U U131G | -5.74
84 | G19A G117A | -4.95
85 | A18U G69U C115G | -0.333
86 | G19C A43C G44C C64A A105C A111U | -7.06
87 | G19A C101G | -5.15
88 | A18U U32A C56A A105C G120C G122A C124A | -4.84
89 | A18U G44A | -2.99
90 | A18U G44U | -2.49
91 | G19A G69U G127C | -2.66
92 | G19A A41U U78C U132C | -4.37
93 | G19C G52A A119U | -3.63
94 | G19A C20A U59C U96A | -5.13
95 | G19C A37G G69U C124G | 0.721
96 | A18U G45A | -2.78

Row | Variant | polymerase ribozyme fitness (log ratio)
97 | G19C C20U C64U | -1.8
98 | G19A C62U U78G | -3.47
99 | G19C A37U A46C C72A C76U C82G C124A | -4.65
100 | G19C G61A G113U U129A | -4.11
101 | G19A G60A A95U | -3.51
102 | A18U U129A | -4.3
103 | A18U U129G | -3.92
104 | A18U G127C | -3.45
105 | G19C C28U C34A C53G C64A C114U U126C | -6.21
106 | G19A A46C U125A | -3.96
107 | A18U G57A U106A | -5.57
108 | A18U G71U U92G | -5.1
109 | A18U G61A C123G | 0.0966
110 | A18U U96A | -3.21
111 | G19C C72U A91U G113A | -0.96
112 | G19C G60A G93A | -2.11
113 | G19C A37U C62G C124U | -3.51
114 | A18U G44U C124U | -1.28
115 | G19C G44A G61A U125G | -2.72
116 | G19U A75G | -3.56
117 | G19A U112G | -3.87
118 | G19U A24G U38C G61U G113A | -3.85
119 | G19A C73U C82U C114A | -1.84
120 | A18U U38G C123A | -4.13

Row | Variant | polymerase ribozyme fitness (log ratio)
121 | G19A A41U C53A G60C A121U | -5.24
122 | A18U G48A U59G G113A G135U | -4.36
123 | A18U G44C C73A A90C | -1.95
124 | A18U U92A | -4.67
125 | G19A C72A | -2.12
126 | G19C G42U G45C C72A C79A C82G | -3.62
127 | G19A A26G U112C A118U | -3.63
128 | G19U A46C G52C U54C U96C C114A | 0.227
129 | G19C G110C C114U | -5.66
130 | G19A C22G A43C G71A C89A U125A | -6.8
131 | G19A U54C C73G C82G C114G G135A | -3.8
132 | G19C A29U C79G U112C A119G | -4.42
133 | G19C C115G | -2.22
134 | G19C A24U G48U G52U C64G U109A G110U | -7.39
135 | G19C U92A C114U U133A | -1.16
136 | A18U G42C A43C G93C | -5.75
137 | G19A C49G C85U A111C | -2.99
138 | G19A A43U C53U C56A G71C | -5.18
139 | A18U U38G C56U C114A G135U | -2.6
140 | G19U A26U C114A | -1.45
141 | G19A C85U C114G | -2.91
142 | G19A G61C C73U C89A C114U U131G | -5.3
143 | A18U G44C U92A A119U C123A | -5.44
144 | G19C C94A U130C | -2.66

Row | Variant | polymerase ribozyme fitness (log ratio)
145 | A18U G93C C94U | -3.75
146 | G19A G71C | -3.41
147 | G19A G63C | -2.92
148 | A18U U21A G51C C53G C56A G57C C79U C115U U130G U131A | -5.86
149 | G19A G23U U92A G120U C124U | -6.05
150 | G19U A46U G60A | -3.83
151 | G19U A43U | -3.24
152 | G19U A43G | -2.34
153 | A18U G122U | -2.38
154 | A18U G52U U133A | -3.89
155 | A18U G48U G61U C104U | -2.08
156 | G19A G51A | -5.49
157 | G19A G51C | -5.83
158 | G19A G110U | -3.66
159 | G19A G110A | -2.58
160 | A18U G60A C88G A118U U130G | -3.95
161 | A18U G93C C97U G128U | -5.92
162 | G19A C22A G113C | -4.67
163 | G19A C123U | -2.48
164 | G19A C79G U81C | -3.95
165 | G19A A121C | -1.3
166 | G19U A37U U55G | -4.52
167 | A18U G60A A90C | -1.79
